Experimental data reported in US11976099B2, “Compositions and methods for treatment of bone associated diseases” (THE NATIONAL INSTITUTE FOR BIOTECHNOLOGY IN THE NEGEV LTD., priority 2016, dated 2024).

Columns and labels:
[1] = test system: Murine bone marrow derived monocytes (BMMs); experiment: Direct cell binding assay, flow cytometry, murine primary cells; format: cell-based, mouse; settings: for direct cell binding: mouse primary cells, 1 μM, 2.5 μM and 7.5 μM
Protocol: Murine bone marrow derived monocytes (BMMs) were obtained by flushing the bone marrow from the femur and tibia of WT C57BL6 mice. The cells were treated with ACK red lysis buffer (Thermo Fisher Scientific, USA) and plated on bacterial culture dishes in αMEM growth medium (Biological Industries, Israel) containing recombinant murine M-CSF (40 ng/ml) (R&D systems, USA). The cells were incubated for 3 days at 37° C. under 5% CO2 to induce monocyte adhesion and proliferation. The plates were washed with PBS, the cells were detached using a cell scraper, and 10^5 cells were transferred to each well in a 96-well plate. The cells were washed twice with 200 μl of 0.1% PBSA. Binding was determined as described for labeled M-CSFM and the M-CSFRGD proteins. For murine c-FMS expression, anti-mouse CD115 (CSF-1R) (BioLegend, USA) was used at 1:50 concentration and detected with goat anti-rat (PE) antibody (Abcam, USA). For αvβ3 integrin expression, the Alexa Fluor® 488 anti-mouse/rat CD61 (BioLegend, USA) antibody was used as previously described. Samples were analyzed with Accuri C6 flow cytometry analyzer (BD Biosciences, USA). The experiment was repeated three times at each concentration.
Assays for direct cell binding were conducted on breast cancer cell line MDA-MB-231 and murine primary cells with flow cytometer. MDA-MB-231 was used because the cells express αvβ3 integrin and c-FMS on the cell membrane, a protein expression pattern that imitates the osteoclast state just before reaching full differentiation and maturation. […] Murine primary cells that were obtained from bone marrow were tested for binding without any induction of differentiation (t=0). Such cells express high levels of c-FMS and low levels of αvβ3 integrin (FIGS. 11A and 11B), a state that imitates an early osteoclast differentiation stage.

[2] = Dynamic light scattering (DLS); format: physicochemical; settings: 0.5 mg/ml; angle of 90°
Protocol: Dynamic light scattering (DLS)—The hydrodynamic radii of M-CSFWT, M-CSFC31S and M-CSFC31S,M27R were determined using DLS. The proteins, in a concentration of 0.5 mg/ml, were filtered to remove aggregates and contaminants. Light scattering was measured at an angle of 90° three times, in two different experiments, resulting in a total of six measurements. […] An analysis of the solution was conducted to verify that the most abundant specie was in the size range of 1-10 nm. The peak for this specie was compared for the three different proteins, and the hydrodynamic radius of each was determined as the maximum of the peak.
Next, the size of the M-CSF variants was evaluated in solution. M-CSFWT, M-CSFC31S and M-CSFC31S,M27R at concentrations of 0.5 mg/ml were subjected to dynamic light scattering (DLS) analysis at an angle of 90°. The peaks for the most abundant species in each sample were compared (FIG. 16B), and an estimated hydrodynamic radius was calculated from each peak. […] To confirm that the oligomeric state of M-CSFC31S,M27R is not concentration dependent, all M-CSF variants were subjected to SAXS measurements at concentrations of 3, 5 and 7 mg/ml. Of note is that the Rg values remained within a similar range for M-CSFWT and M-CSFC31S. There was a slight increase in the Rg value of M-CSFC31S,M27R at higher concentrations, presumably due to an increase in interparticle interactions. […] To illustrate the oligomeric states of these three proteins in solution, low-resolution structures were reconstructed from the SAXS data. Ab initio models were reconstructed from SAXS data using the computer program GASBOR and were averaged by the computer program DAMAVER. The crystal structure of the M-CSF dimer and the structure of the monomer were aligned with the obtained SAXS models (yellow, M-CSFWT; green, M-CSFC31S; cyan, M-CSFC31S,M27R) using PyMOL (http://www.pymol.org).

Row | Molecule | direct cell binding [1] | relative cell binding ([1]; no induction of differentiation (t=0)) | hydrodynamic radius [2]
1 | M-CSFM: 158 amino acid M-CSF with cysteine at position 31 replaced by serine (SEQ ID NO: 2) (protein) EEVSEYCSHMIGSGHLQSLQRLIDSQMETSSQITFEFVDQEQLKDPVCYLKKAFLLVQDIMEDTMRFRDNTPNAIAIVQLQELSLRLKSCFTKDYEEHDKACVRTFYETPLQLLEKVKNVFNETKNLLDKDWNIFSKNCNNSFAECSSQGHERQSEGS | binding in a dose dependent manner | stronger cell binding than 5.6 and 4.22 | 3.56±0.24 nm
2 | 5.6: bispecific M-CSFRGD variant from sort five; M-CSFM loop replaced by XXXRGDXXX motif; binds c-FMS and αvβ3 integrin (protein, left off: small tags and cut ends) EEVSEYCSHMIGSGHLQSLQRLIDTYPRGDMCSITFEFVDQEQLKDPVCYLKKAFLLVQDIMEDTMRFRDNTPNAIAIVQLQELSLRLKSCFTKDYEEHDKACVRTFYETPLQLLEKVKNVFNETKNLLDKDWNIFSKNCNNSFAECSSQGHERQSEGS | binding in a dose dependent manner |  | 
3 | M-CSFC31S,M27R: M-CSF double mutant containing both C31S and M27R; monomeric, monospecific c-FMS antagonist (protein) EEVSEYCSHMIGSGHLQSLQRLIDSQRETSSQITFEFVDQEQLKDPVCYLKKAFLLVQDIMEDTMRFRDNTPNAIAIVQLQELSLRLKSCFTKDYEEHDKACVRTFYETPLQLLEKVKNVFNETKNLLDKDWNIFSKNCNNSFAECSSQGHERQSEGS |  |  | 2.94±0.10 nm
4 | M-CSFWT: wild-type human M-CSF, disulfide-bond-linked homodimer which binds and activates c-FMS (protein) EEVSEYCSHMIGSGHLQSLQRLIDSQMETSCQITFEFVDQEQLKDPVCYLKKAFLLVQDIMEDTMRFRDNTPNAIAIVQLQELSLRLKSCFTKDYEEHDKACVRTFYETPLQLLEKVKNVFNETKNLLDKDWNIFSKNCNNSFAECSSQGHERQSEGS |  |  | 3.73±0.19 nm
